B1: MAP7 MT-binding domain (MTBD), residues 59-170 (domain or fragment)
chain: PVLRVDDRQRLARERREEREKQLAAREIVWLEREERARQHYEKHLEERKKRLEEQRQKEERRRAAVEEKRRQRLEEDKERHEAVVRRTMERSQKPKQKHNRWSWGGSLHGSP

Experiment [1] concerns the target B1. As to the kind of experiment: fluorescence polarisation.
Experiment [2] addresses Taxol-stabilized microtubules from lyophilized tubulin (Cytoskeleton, Inc.) (UniProt P02550 1-451; P02554 1-445). Briefly: ITC.

Ends that are not written are not given here.

The term Kd denotes the concentration at which binding is half-saturated.

Sequence of Taxol-stabilized microtubules from lyophilized tubulin (Cytoskeleton, Inc.) (P02550 whole entry, chain 1 of 2): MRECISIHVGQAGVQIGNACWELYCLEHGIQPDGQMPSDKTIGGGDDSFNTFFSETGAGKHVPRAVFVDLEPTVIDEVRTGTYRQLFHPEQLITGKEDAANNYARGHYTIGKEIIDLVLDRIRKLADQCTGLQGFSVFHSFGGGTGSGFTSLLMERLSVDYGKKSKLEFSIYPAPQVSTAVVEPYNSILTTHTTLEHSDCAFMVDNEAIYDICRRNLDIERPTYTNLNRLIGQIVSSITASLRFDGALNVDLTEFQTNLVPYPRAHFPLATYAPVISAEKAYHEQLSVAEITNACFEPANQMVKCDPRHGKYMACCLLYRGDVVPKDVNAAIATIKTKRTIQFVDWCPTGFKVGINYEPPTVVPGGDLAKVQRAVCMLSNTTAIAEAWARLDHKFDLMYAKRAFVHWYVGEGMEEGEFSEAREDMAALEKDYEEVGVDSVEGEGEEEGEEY
Sequence of Taxol-stabilized microtubules from lyophilized tubulin (Cytoskeleton, Inc.) (P02554 whole entry, chain 2 of 2): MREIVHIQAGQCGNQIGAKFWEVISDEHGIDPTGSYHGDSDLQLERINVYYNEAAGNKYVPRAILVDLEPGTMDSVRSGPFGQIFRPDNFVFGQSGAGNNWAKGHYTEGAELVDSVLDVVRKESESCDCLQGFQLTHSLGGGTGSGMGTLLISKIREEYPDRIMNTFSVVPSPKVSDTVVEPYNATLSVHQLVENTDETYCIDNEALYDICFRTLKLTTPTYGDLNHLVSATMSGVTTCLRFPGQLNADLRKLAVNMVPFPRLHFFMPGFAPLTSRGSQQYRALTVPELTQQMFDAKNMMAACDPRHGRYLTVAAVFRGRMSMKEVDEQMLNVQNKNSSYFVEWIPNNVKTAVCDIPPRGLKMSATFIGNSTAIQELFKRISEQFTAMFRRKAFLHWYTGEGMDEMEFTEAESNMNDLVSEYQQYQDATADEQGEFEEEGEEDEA

For the molecule SVEGEGEEEGEEY (also: NHS-fluorescein label, position not given here) [NHS-fluorescein-labelled α-tubulin carboxy-terminal tail peptide], in experiment [1], the Kd was found to be 91.3 ± 17.5 µM.

For the molecule B1, in experiment [2], the dissociation constant (Kd) was 0.94 µM and the “stoichiometry N” value was 0.51 ± 0.09 MAP7 MTBD to tubulin.
